Assay results: patent US20180344829A1 (INNATE PHARMA, published 2018)
Where a chain is given by its changes, count along the chain named.

B1: antibody S10-B (antibody, human IgG1, V domains shown)
VH: QVQLKESGPGLVAPSQSLSITCTVSGFSLTDYDVNWVRQPPGKGLEWLGMIWGDGITDYNSALKSRLSISKDNSKSQVFLEMNSLQTDDTARYYCARGGIYYFGNTYGYWFFDVWGAGTTVTVSS
VL: DIVMTQSPSSLAVSTGEKVTMSCKSSQSLLNSRTRKNYLAWYQQKPGQSPKLLIYWASTRESGVPDRFTGSGSGTDFTLTISSVQAEDLAVYYCKQSYNLRTFGGGTKLEIKR
notes: also called CHS2-S10-B
B2: antibody S10-C (antibody, human IgG1, V domains shown)
VH: B1 VH
VL: B1 VL with D1E, V3L, M4L
notes: also called CHS2-S10-C
B3: antibody S10-A (antibody, human IgG1, V domains shown)
VH: QIQLQQSGAELEKPGASVKMSCKASGYTFTSYWMHWVKQRPGQGLEWIGYINPDTDSTEYNQKFRDKATLTADKSSSTAYMQLSSLTSEDSAVYYCARPYYRYAGYAMDYWGQGTSVTVSS
VL: DIKMTQSPSSMYASLGERVTITCKASQDINSYLSWFQQKPGKSPKTLIYRANRLVDGVPSRFSGSGSGQVYSLTISSLEYEDLGIYYCLQYDEFPWTFGGGTKLEIKR
notes: also called CHS2-S10-A

Key:
[1] = molecular target: T1, human Siglec-7 expressed on CHO cells (human, UniProt Q9Y286 19-467); assay: flow cytometry on CHO transfectants
T1 construct: NCBI NP_055200.1 is printed; also called Siglec-7 CHO transfectants
T1 sequence (Q9Y286 19-467): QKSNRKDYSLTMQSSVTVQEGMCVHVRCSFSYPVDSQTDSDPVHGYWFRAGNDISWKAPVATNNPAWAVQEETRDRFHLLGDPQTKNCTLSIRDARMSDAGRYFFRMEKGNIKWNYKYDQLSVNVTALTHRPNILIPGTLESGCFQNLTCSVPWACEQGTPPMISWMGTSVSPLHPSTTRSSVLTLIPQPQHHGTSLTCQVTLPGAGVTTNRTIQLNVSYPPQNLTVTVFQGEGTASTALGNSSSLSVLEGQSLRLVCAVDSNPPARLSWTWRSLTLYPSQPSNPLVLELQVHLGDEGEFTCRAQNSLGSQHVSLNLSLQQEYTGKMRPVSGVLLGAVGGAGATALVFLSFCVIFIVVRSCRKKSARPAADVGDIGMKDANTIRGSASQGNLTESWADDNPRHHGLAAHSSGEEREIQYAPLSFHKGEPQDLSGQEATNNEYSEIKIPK
Experimental: (§1) Cells expressing Siglec-3, -5, -6, -7, -8, -9, -11 and -12 were generated using the amino acid sequences and Genbank references for Siglec polypeptides shown below in Table 2. Anti-Siglec-10 antibodies are tested by flow cytometry for binding to the cells. Binding of antibodies on human Siglec-10 was tested by flow cytometry on CHO cells transfected with human Siglec-10, human Siglec-7 or human Siglec-11. Cells were incubated 1h in Staining Buffer (SB) with primary antibodies at 8 ug/ml, then were washed three times with SB. Secondary Goat F(ab′)2 Anti-Human IgG (Fc) PE (Beckman Coulter) was incubated for 30 min at 4° C., cells were washed twice with SB. […] The 6 antibodies bound human Siglec-10 CHO transfectants with high differential in binding affinity over the control Siglec-7 or Siglec-11 CHO transfectants (no or only low residual binding to Siglec-7 or Siglec-11). […] The EC₅₀ as determined by flow cytometry for binding for S10-A antibody to Siglec-10 expressing CHO cells was 0.1 μg/ml.

[2] = molecular target: T2, human Siglec-10 expressed on CHO cells (human, UniProt Q96LC7 17-697); assay: flow cytometry on CHO transfectants, antibodies at 8 ug/ml
T2 construct: NCBI NP_149121 is printed; also called huSiglec-10; Siglec-10 CHO transfectants
T2 sequence: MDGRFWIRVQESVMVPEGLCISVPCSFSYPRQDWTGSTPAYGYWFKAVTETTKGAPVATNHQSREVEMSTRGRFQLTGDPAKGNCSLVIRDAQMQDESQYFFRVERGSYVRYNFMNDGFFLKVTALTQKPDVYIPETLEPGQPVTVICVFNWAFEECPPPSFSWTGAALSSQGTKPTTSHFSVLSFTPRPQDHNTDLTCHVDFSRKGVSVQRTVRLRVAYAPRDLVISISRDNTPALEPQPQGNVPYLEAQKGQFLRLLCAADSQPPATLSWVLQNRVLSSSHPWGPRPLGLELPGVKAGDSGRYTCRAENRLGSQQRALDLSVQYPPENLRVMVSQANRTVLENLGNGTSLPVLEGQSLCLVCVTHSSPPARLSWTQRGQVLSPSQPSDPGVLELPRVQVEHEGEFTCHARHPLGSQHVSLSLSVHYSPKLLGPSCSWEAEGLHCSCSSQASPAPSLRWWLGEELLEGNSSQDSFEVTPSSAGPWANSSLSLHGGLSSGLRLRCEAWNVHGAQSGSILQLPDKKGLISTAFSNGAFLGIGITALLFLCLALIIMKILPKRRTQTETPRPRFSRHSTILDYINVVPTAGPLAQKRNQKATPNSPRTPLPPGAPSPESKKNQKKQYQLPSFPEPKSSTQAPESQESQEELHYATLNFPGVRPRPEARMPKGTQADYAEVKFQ
Experimental: as §1

[3] = molecular target: T2, human Siglec-10 expressed on CHO cells; assay: flow cytometry on Siglec-10 expressing CHO cells

| Binder | binding result [1] | binding result [2] | EC50 [3] [mg/L] |
| --- | --- | --- | --- |
| B1 | no binding (tested: 8 ug/ml) | binds |  |
| B2 | no binding (tested: 8 ug/ml) | binds |  |
| B3 | no binding (tested: 8 ug/ml) |  | 0.1 |
